Laboratory results reported in paper PMC9284671 (Structure (London, England : 1993), 2022).

How the values were obtained:
[1] = biological target: T1, SARS-CoV-2 spike S2 subunit (SARS-CoV-2 (WA-1 / Wuhan-Hu-1), UniProt P0DTC2); experiment: far-Western, overlay or dot blot
[2] = biological target: T2, SARS-CoV spike peptide #154 (PELDSFKEELDKYFKNH) (SARS-CoV); experiment: far-Western, overlay or dot blot
T2 chain: PELDSFKEELDKYFKNH

[3] = biological target: SARS-CoV-2 full-length spike (WA-1) (SARS-CoV-2 WA-1 (GenBank QHD43416.1), UniProt P0DTC2); experiment: flow cytometry on cells
[4] = biological target: SARS-CoV full-length spike (Urbani) (SARS-CoV Urbani, UniProt P59594); experiment: flow cytometry on cells
[5] = biological target: MERS-CoV full-length spike (EMC) (MERS-CoV EMC/2012 (GenBank AFS88936), UniProt K0BRG7); experiment: flow cytometry on cells
[6] = biological target: hCoV-OC43 full-length spike (hCoV-OC43 (AAT84354.1, cross-referenced …, UniProt P36334)); experiment: flow cytometry on cells
[7] = biological target: hCoV-HKU1 full-length spike (hCoV-HKU1 isolate N1, UniProt Q5MQD0); experiment: flow cytometry on cells
[8] = biological target: hCoV-HKU1 S2P (pre-fusion-stabilized soluble spike) (hCoV-HKU1 isolate N1, UniProt Q5MQD0, stabilised); experiment: ELISA
[9] = biological target: hCoV-OC43 S2P (pre-fusion-stabilized soluble spike) (hCoV-OC43 (AAT84354.1, cross-referenced …, UniProt P36334, stabilised)); experiment: ELISA
[10] = biological target: SARS-CoV-2 S-dTM (soluble spike protein residues 1-1,206 of wild-type WA-1 strain) (SARS-CoV-2 WA-1, UniProt P0DTC2); experiment: ELISA
[11] = biological target: T1, SARS-CoV-2 spike S2 subunit; experiment: negative-stain electron microscopy

Measured: binding result

B1: WS6 (monoclonal antibody, IgG) (antibody, V domains shown)
VH: EVQFQQSGTVLARPGASVKMSCKASGYTFTNYWIHWVKQRPGQGLEYIGGTYPGNGDTTYNQKFKGKAKVTAVTPTSTAYMDLSSLTNEDSAVYYCTRTGSYFDYWGQGTTLTVSS
VL: QIVLTQSPAIMSASPGEKVTISCSATSSVSYIYWYQQRPGSSPKPWIYRTSNLASGVPVRFSGSGSGTSYSLTISNMEAEDAATYYCQQYQSYPPTFGAGTKLELK
not listed: [11]
binds: all other assays above

B2: WS6 Fab (antigen-binding fragment of WS6) (Fab, V domains shown)
VH: EVQFQQSGTVLARPGASVKMSCKASGYTFTNYWIHWVKQRPGQGLEYIGGTYPGNGDTTYNQKFKGKAKVTAVTPTSTAYMDLSSLTNEDSAVYYCTRTGSYFDYWGQGTTLTVSS
VL: QIVLTQSPAIMSASPGEKVTISCSATSSVSYIYWYQQRPGSSPKPWIYRTSNLASGVPVRFSGSGSGTSYSLTISNMEAEDAATYYCQQYQSYPPTFGAGTKLELK
binds: [11]
